In the supplement of paper PMC10065799, “High-throughput profiling of sequence recognition by tyrosine kinases and SH2 domains using bacterial peptide display” (eLife, 2023):

Legend:
c-Src SH2 = experiment: SH2 binding enrichment of the phosphorylated peptide, bacterial display (enrichment ratio); higher = better substrate or ligand; peptides without Tyr show the background
Grb2 SH2 = Grb2 SH2 (UniProt P62993); experiment: as above
SHP2-C SH2 = experiment: as above
FGFR1 = FGFR1 (UniProt P11362); experiment: phosphorylation enrichment, bacterial display (enrichment ratio); higher = better substrate or ligand; peptides without Tyr show the background
c-Src = experiment: as above
Hck = Hck (UniProt P08631); experiment: as above
Jak2 = Jak2 (UniProt O60674); experiment: as above
AncSZ = experiment: as above
FGFR3 = FGFR3 (UniProt P22607); experiment: as above
EPHB1 = EPHB1 (UniProt P54762); experiment: as above
c-Abl (mouse) = experiment: as above
Fyn = Fyn (UniProt P06241); experiment: as above
Fer (mouse) = experiment: as above
MERTK = MERTK (UniProt Q12866); experiment: as above
EPHB2 = EPHB2 (UniProt P29323); experiment: as above
Fes = Fes (UniProt P07332); experiment: as above
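Wherever SH2 binding enrichment of the phosphorylated peptide, bacterial display is given: peptide library displayed on the E. coli surface as eCPX fusions, selected cells deep-sequenced, score is each peptide's frequency after selection divided by its frequency in the input.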
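Wherever phosphorylation enrichment, bacterial display is given: 11-residue human phosphosite peptides and single-mutation variants displayed on the E. coli surface, counted by deep sequencing, each peptide's frequency after selection divided by its frequency in the unselected input library; frequency after pTyr selection over input frequency; kinase dosed for 20-30% of maximal phosphorylation in three min.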

Hck, sequence (P08631 whole entry, looked up): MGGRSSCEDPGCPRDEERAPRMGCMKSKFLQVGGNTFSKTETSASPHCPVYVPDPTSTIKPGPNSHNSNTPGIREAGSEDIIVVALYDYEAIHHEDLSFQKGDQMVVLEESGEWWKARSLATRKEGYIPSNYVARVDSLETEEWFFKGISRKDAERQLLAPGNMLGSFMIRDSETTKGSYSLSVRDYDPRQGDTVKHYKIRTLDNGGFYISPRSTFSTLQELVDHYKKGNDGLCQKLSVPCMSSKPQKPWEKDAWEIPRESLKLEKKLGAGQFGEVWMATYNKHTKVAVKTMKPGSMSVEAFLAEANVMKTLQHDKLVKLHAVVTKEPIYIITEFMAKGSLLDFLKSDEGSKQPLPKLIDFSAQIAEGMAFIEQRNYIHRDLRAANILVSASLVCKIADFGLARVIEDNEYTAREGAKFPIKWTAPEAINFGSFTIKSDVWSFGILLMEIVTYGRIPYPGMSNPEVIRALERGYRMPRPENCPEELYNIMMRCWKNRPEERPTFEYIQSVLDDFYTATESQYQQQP
EPHB2, sequence (P29323 whole entry, looked up): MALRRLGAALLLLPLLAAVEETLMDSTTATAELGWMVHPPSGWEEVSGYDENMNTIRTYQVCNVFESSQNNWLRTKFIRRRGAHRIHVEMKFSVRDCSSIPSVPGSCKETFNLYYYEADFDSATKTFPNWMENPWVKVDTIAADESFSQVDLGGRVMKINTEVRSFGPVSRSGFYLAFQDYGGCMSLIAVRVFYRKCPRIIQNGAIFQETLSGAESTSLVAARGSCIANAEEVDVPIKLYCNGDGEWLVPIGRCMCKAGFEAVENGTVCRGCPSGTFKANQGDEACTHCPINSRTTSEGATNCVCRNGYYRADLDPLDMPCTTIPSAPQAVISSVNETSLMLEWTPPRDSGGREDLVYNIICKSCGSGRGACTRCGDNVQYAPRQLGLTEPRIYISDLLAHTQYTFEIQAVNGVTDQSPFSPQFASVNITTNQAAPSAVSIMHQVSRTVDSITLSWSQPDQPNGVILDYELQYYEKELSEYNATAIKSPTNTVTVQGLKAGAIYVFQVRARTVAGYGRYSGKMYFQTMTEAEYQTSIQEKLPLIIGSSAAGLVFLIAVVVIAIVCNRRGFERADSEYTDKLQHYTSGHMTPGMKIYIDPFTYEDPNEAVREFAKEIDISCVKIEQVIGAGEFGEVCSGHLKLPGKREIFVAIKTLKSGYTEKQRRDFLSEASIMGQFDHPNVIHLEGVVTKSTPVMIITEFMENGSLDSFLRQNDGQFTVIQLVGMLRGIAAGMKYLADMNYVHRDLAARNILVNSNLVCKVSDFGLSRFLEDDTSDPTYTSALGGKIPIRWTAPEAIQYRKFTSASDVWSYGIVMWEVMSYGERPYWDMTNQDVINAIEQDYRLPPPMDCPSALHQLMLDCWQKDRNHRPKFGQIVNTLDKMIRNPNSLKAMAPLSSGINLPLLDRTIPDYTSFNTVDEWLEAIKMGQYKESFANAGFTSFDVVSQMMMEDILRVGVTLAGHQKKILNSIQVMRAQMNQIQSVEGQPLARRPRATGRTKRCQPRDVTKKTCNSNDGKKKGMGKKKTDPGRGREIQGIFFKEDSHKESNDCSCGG
FGFR1, sequence (P11362 whole entry, looked up): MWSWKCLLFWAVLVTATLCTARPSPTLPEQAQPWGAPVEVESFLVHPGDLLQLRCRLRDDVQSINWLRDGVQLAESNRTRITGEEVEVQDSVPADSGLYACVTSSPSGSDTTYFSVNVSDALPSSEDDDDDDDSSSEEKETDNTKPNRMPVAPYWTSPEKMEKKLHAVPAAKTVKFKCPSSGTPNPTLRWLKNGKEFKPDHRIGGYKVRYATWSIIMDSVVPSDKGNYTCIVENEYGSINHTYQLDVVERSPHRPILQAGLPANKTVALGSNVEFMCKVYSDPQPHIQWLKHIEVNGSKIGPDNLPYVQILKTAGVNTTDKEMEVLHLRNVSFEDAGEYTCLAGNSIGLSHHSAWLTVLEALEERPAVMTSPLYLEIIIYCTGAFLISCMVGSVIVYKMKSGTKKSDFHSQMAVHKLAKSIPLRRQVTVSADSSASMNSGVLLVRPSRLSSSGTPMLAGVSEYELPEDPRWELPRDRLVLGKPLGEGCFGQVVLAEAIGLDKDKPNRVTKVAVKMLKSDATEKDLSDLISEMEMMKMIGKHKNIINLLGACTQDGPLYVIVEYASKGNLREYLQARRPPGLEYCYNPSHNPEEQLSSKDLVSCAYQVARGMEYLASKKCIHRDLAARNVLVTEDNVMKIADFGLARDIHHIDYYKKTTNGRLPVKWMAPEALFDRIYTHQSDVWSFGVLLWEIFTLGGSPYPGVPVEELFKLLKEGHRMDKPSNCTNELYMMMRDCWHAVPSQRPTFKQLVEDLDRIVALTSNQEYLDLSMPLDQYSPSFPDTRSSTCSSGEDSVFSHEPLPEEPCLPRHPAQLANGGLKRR
FGFR3, sequence (P22607 whole entry, looked up): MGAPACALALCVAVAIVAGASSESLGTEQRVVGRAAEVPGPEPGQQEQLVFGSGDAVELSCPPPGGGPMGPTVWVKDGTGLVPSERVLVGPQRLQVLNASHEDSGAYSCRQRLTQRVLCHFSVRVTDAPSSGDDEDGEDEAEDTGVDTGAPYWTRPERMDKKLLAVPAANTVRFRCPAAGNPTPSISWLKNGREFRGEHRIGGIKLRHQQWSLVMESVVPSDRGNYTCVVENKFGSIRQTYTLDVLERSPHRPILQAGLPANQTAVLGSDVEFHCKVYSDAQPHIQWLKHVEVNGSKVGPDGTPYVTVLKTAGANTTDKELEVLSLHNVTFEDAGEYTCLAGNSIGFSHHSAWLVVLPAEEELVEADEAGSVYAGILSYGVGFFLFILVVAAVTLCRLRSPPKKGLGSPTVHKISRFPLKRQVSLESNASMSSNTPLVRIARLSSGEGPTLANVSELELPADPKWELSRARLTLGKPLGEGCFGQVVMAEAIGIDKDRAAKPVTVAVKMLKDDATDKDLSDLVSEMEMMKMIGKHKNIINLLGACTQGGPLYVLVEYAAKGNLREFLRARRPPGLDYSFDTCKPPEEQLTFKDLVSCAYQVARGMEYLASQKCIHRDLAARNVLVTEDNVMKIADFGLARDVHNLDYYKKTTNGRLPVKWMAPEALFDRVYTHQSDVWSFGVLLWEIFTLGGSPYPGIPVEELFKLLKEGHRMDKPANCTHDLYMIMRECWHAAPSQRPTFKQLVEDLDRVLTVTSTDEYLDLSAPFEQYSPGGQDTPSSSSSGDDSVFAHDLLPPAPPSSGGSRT
Jak2, sequence (O60674 whole entry, looked up): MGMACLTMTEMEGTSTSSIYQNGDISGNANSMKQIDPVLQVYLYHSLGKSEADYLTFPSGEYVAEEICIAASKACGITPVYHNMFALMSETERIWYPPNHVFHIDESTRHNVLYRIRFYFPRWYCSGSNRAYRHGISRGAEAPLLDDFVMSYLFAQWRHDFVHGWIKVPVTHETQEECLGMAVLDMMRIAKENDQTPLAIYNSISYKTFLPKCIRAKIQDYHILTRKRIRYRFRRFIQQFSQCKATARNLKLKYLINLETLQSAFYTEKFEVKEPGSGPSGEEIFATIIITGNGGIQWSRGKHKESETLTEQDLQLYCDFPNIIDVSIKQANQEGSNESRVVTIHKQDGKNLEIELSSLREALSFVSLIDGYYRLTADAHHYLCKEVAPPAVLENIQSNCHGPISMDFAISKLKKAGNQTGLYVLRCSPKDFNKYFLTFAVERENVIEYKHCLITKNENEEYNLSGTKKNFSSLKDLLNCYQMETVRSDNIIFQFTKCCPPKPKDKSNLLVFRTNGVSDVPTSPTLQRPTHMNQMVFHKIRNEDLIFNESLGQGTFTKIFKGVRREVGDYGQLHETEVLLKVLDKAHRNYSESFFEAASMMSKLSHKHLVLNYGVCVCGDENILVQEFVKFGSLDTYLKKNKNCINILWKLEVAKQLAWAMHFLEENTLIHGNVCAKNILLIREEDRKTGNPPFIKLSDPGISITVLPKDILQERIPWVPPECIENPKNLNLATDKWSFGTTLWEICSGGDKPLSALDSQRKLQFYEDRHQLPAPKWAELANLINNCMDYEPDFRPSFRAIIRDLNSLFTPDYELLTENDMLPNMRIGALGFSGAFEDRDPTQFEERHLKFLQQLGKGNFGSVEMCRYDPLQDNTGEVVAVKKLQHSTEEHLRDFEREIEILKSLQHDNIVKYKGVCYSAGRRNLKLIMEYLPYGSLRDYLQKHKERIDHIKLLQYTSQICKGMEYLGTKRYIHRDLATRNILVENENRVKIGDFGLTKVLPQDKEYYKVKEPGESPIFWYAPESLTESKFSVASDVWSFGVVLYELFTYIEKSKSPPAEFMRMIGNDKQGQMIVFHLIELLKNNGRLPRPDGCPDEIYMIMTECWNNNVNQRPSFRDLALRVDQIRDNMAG
Fyn, sequence (P06241 whole entry, looked up): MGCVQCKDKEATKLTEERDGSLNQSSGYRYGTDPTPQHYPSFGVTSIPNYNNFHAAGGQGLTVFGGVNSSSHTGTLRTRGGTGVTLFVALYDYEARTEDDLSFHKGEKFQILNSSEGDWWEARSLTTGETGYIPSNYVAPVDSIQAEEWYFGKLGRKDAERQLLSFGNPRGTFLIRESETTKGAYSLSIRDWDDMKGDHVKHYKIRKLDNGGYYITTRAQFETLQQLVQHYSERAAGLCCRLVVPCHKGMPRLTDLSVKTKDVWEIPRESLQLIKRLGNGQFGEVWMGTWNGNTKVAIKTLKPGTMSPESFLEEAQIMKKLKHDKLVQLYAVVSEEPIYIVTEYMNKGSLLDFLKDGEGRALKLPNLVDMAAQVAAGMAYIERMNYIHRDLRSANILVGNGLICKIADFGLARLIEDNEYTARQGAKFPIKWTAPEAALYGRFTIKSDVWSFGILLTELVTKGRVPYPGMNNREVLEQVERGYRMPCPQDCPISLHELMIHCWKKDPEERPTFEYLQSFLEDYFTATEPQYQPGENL

| SH2 binding enrichment (c-Src SH2) | SH2 binding enrichment (Grb2 SH2) | SH2 binding enrichment (SHP2-C SH2) | Sequence | phosphorylation enrichment (FGFR1) | phosphorylation enrichment (c-Src) | phosphorylation enrichment (Hck) | phosphorylation enrichment (Jak2) | phosphorylation enrichment (AncSZ) | phosphorylation enrichment (FGFR3) | phosphorylation enrichment (EPHB1) | phosphorylation enrichment (c-Abl (mouse)) | phosphorylation enrichment (Fyn) | phosphorylation enrichment (Fer (mouse)) | phosphorylation enrichment (MERTK) | phosphorylation enrichment (EPHB2) | phosphorylation enrichment (Fes) |
| --- | --- | --- | --- | --- | --- | --- | --- | --- | --- | --- | --- | --- | --- | --- | --- | --- |
| 0.529 | 0.945 | 0.82 | HSFQCYGRNEA [ENTPD3_Y262] | 0.761 | 0.417 | 0.797 | 0.594 | 1.23 | 1.18 | 0.875 | 0.736 | 0.711 | 0.759 | 0.585 | 1.04 | 1.28 |
| 0.49 | 0.713 | 0.555 | SYNNKYGMVAQ [APOB_Y276_K273N] | 0.41 | 0.467 | 0.476 | 0.607 | 0.623 | 0.471 | 0.381 | 0.61 | 0.428 | 0.411 | 0.378 | 0.474 | 0.632 |
| 0.813 | 1.15 | 0.697 | YDAHNYHPLPV [OAT_Y55_G51D] | 12.7 | 0.622 | 2.01 | 0.848 | 0.871 | 7.27 | 0.923 | 1.05 | 0.864 | 6.52 | 3.58 | 1.62 | 0.685 |
| 0.651 | 0.846 | 0.863 | EHTTLYSNNST [KANSL1_Y223] | 0.356 | 0.455 | 0.568 | 0.575 | 0.632 | 0.431 | 0.387 | 0.487 | 0.423 | 0.602 | 0.386 | 0.53 | 0.65 |
| 0.471 | 0.615 | 0.57 | IDDLEYLHSQG [STK11_Y166_G163D] | 0.676 | 0.578 | 0.531 | 0.865 | 1.22 | 0.737 | 0.638 | 0.636 | 0.581 | 0.61 | 0.572 | 0.777 | 1.24 |
| 0.713 | 0.885 | 0.839 | YIATQYSLCPR [LBR_Y166_R169C] | 1.73 | 0.725 | 0.719 | 0.873 | 1.23 | 1.19 | 0.511 | 0.716 | 0.67 | 0.606 | 1.75 | 0.817 | 0.907 |
| 0.473 | 0.878 | 0.561 | REGAKYVSHSA [ASS1_Y113_G117S] | 0.473 | 0.667 | 0.457 | 0.691 | 0.764 | 0.854 | 0.414 | 0.818 | 0.454 | 0.504 | 0.593 | 0.468 | 0.785 |
| 0.518 | 0.883 | 0.892 | FSDPSYVKQME [CDC5L_Y464_YF] | 0.558 | 0.411 | 0.505 | 0.704 | 0.867 | 1.36 | 0.476 | 0.471 | 0.532 | 0.452 | 0.407 | 0.581 | 0.939 |
| 0.487 | 0.803 | 0.635 | ERIELYELDKK [PMM2_Y145_F144L] | 0.481 | 0.615 | 0.574 | 0.887 | 1.18 | 0.673 | 0.664 | 0.641 | 0.586 | 0.506 | 0.568 | 0.589 | 1.1 |
